Experiment in all cases: cell-based or functional assay
Test [1] addresses human glucagon receptor (human) (UniProt P47871).
In another test the target is hGLP-1R (Homo sapiens, UniProt P43220).
For test [2], the target named is T1, human GIP receptor (human) (UniProt P48546).
T1 sequence (looked up): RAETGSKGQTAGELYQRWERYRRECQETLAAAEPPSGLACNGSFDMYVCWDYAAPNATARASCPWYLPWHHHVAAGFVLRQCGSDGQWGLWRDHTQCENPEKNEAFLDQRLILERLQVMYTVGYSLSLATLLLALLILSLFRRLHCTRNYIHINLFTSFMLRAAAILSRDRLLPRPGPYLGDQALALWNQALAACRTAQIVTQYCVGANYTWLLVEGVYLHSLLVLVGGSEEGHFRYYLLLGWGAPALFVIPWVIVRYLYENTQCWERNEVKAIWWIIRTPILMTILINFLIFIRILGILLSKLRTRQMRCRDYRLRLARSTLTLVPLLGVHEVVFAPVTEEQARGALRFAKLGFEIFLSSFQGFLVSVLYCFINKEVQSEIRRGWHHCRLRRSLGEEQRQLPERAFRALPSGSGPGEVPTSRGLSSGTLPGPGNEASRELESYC

Sequence of human glucagon receptor (human) (P47871 26-477): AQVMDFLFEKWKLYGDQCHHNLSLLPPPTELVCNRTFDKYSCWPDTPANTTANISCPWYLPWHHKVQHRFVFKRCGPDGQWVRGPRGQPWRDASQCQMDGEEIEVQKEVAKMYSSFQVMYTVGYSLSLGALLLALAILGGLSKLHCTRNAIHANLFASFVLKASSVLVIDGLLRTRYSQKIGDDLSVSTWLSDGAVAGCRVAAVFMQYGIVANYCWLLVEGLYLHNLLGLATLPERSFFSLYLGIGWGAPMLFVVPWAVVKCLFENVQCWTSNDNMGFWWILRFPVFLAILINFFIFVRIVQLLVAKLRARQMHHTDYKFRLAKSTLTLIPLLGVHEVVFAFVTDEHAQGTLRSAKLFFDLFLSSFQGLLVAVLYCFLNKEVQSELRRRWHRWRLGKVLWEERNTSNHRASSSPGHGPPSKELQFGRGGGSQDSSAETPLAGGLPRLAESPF
Sequence of hGLP-1R (P43220 24-463): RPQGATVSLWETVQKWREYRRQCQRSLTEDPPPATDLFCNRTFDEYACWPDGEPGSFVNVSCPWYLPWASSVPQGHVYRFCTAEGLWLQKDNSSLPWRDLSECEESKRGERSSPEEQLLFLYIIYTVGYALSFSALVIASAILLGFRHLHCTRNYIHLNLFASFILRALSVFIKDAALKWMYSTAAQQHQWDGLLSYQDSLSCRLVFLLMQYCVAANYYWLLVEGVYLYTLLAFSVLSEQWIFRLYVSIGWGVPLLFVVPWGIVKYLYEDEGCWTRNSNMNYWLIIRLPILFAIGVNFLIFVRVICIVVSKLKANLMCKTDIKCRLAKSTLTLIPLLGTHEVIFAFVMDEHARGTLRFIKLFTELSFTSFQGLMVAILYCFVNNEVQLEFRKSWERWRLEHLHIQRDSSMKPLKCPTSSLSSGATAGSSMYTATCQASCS

B1: Example 1165 (peptide)
chain: YXQGTXTSDXXIXLDXKAQXEFIEXLIEGGPSSGEPPPSGE
modifications: non-natural residues (Aib, αMeF, 4Pal, Orn, Me4Pal); lipidated Lys; C-amide; synthetic construct; SITE 2: note = 2-Aminoisobutyric Acid; SITE 6: note = alpha-methyl-L-phenylalanine; SITE 10: note = 3-(4-Pyridyl)-L-alanine; SITE 11: note = alpha-methyl-L-serine; SITE 13: note = alpha-methyl-leucine; SITE 16: note = L-ornithine; SITE 17: note = Lysine is chemically modified th
For B1, the results for the Relative cAMP EC50 (in test [1]; with hGLP-1R; in test [2]) were 2.68 nM, 0.632 nM and 0.0121 nM, respectively. Moreover, the cAMP Rel EC50 (in the presence of 1% HSA) in test [1] is 358 nM; in the test with hGLP-1R it was 87.7 nM; in test [2], 1.36 nM.

B2: Example 1158 (peptide)
chain: YXQGTXTSDXXIXLDXKAQXEFIEXLVEGGPSSGAPPPEGE
modifications: not fully specified; non-natural residues, lysine acylation, C-terminal amide; synthetic construct; SITE 2: note = 2-Aminoisobutyric Acid; SITE 6: note = alpha-methyl-2-fluoro-L-phenylalanine; SITE 10: note = 3-(4-Pyridyl)-L-alanine; SITE 11: note = alpha-methyl-L-serine; SITE 13: note = alpha-methyl-leucine; SITE 16: note = L-ornithine; SITE 17: note = Lysine is chemically mo
Turning to B2, the Relative cAMP EC50 in test [1] was found to be 2.19 nM; with hGLP-1R, 0.419 nM; in test [2], 0.0126 nM. Further, the cAMP Rel EC50 (in the presence of 1% HSA) amounted to 301 nM in test [1], 46.8 nM with hGLP-1R and 1.42 nM in test [2].

B3: Example 1176 (peptide)
chain: YXQGTXTSDXXIXLDXKAQXEFIEXLIEGGPSSGAPPPSGE
modifications: non-natural residues; lipidated Lys; C-terminal amide; synthetic construct; SITE 2: note = 2-Aminoisobutyric Acid; SITE 6: note = alpha-methyl-2-fluoro-L-phenylalanine; SITE 10: note = 3-(4-Pyridyl)-L-alanine; SITE 11: note = alpha-methyl-L-serine; SITE 13: note = alpha-methyl-leucine; SITE 16: note = L-ornithine; SITE 17: note = Lysine is chemically mo
Turning to B3, the results for the cAMP Rel EC50 (in the presence of 1% HSA) (in test [1]; in the test with hGLP-1R; in test [2]) were 229 nM, 43.8 nM and 0.462 nM, respectively.

B4: Example 1161 (peptide)
chain: YXQGTXTSDXXIXLDXKAQXEFIEXLVEGGPSSGEPPPSGE
modifications: Aib, αMeF(2F), 4Pal, αMeS, αMeL, Orn, Me4Pal, αMeY; lipidated Lys; amide; synthetic construct; SITE 2: note = 2-Aminoisobutyric Acid; SITE 6: note = alpha-methyl-2-fluoro-L-phenylalanine; SITE 10: note = 3-(4-Pyridyl)-L-alanine; SITE 11: note = alpha-methyl-L-serine; SITE 13: note = alpha-methyl-leucine; SITE 16: note = L-ornithine; SITE 17: note = Lysine is chemically mo
For B4, the Relative cAMP EC50 in test [1] was 2.19 nM; in the test with hGLP-1R, 0.39 nM; in test [2], 0.00973 nM. Further, the cAMP Rel EC50 (in the presence of 1% HSA) in test [1] turned out to be 217 nM; in the test with hGLP-1R, 35.5 nM; in test [2] it was 0.733 nM.

B5: Example 1159 (peptide)
chain: YXQGTXTSDXXIXLDXKAQXEFIEXLVEGGPSSGEPPPEGE
modifications: Aib, αMeF(2F), 4Pal, Me4Pal, Orn; lipidated Lys; C-terminal amide; synthetic construct; SITE 2: note = 2-Aminoisobutyric Acid; SITE 6: note = alpha-methyl-2-fluoro-L-phenylalanine; SITE 10: note = 3-(4-Pyridyl)-L-alanine; SITE 11: note = alpha-methyl-L-serine; SITE 13: note = alpha-methyl-leucine; SITE 16: note = L-ornithine; SITE 17: note = Lysine is chemically mo
Regarding B5, the Relative cAMP EC50 in test [1] stood at 1.86 nM; in the test with hGLP-1R, 0.45 nM; in test [2], 0.0118 nM. The cAMP Rel EC50 (in the presence of 1% HSA) in test [1] was determined as 238 nM; in the test with hGLP-1R, 64.1 nM; in test [2] it was 1.29 nM.

B6: Example 1177 (peptide)
chain: YXQGTXTSDXXIXLDXKAQXEFIEXLIEGGPSSGEPPPSGE
modifications: non-natural residues; Lys acylated C18 diacid via AEEA-γGlu2; C-term amide; synthetic construct; SITE 2: note = 2-Aminoisobutyric Acid; SITE 6: note = alpha-methyl-2-fluoro-L-phenylalanine; SITE 10: note = 3-(4-Pyridyl)-L-alanine; SITE 11: note = alpha-methyl-L-serine; SITE 13: note = alpha-methyl-leucine; SITE 16: note = L-ornithine; SITE 17: note = Lysine is chemically mo
Turning to B6, the Relative cAMP EC50 in test [1] was 4.23 nM; in the test with hGLP-1R, 0.681 nM; in test [2] it was 0.0114 nM. The cAMP Rel EC50 (in the presence of 1% HSA) in test [1] came to 156 nM; in the test with hGLP-1R, 43.6 nM; in test [2] it was 0.544 nM.

B7: Example 1170 (peptide)
chain: YXQGTXTSDXXIXLDXKAQXEFIEXLIEGGPSSGAPPPSGE
modifications: non-natural residues; acylated Lys; C-terminal amide; synthetic construct; SITE 2: note = 2-Aminoisobutyric Acid; SITE 6: note = alpha-methyl-L-phenylalanine; SITE 10: note = 3-(4-Pyridyl)-L-alanine; SITE 11: note = alpha-methyl-L-serine; SITE 13: note = alpha-methyl-leucine; SITE 16: note = L-ornithine; SITE 17: note = Lysine is chemically modified th
For the molecule B7, the figures for the Relative cAMP EC50 (in test [1]; with hGLP-1R; in test [2]) were 2.43 nM, 0.395 nM and 0.00783 nM, respectively. The cAMP Rel EC50 (in the presence of 1% HSA) in test [1] turned out to be 249 nM; in the test with hGLP-1R it was 50.2 nM; in test [2], 0.663 nM.

B8: Example 1168 (peptide)
chain: YXQGTXTSDXXIXLDXKAQXEFIEXLIEGGPSSGAPPPSGGGE
modifications: non-natural residues, AEEA-γGlu-C18 diacid lysine acylation, C-terminal amide; synthetic construct; SITE 2: note = 2-Aminoisobutyric Acid; SITE 6: note = alpha-methyl-L-phenylalanine; SITE 10: note = 3-(4-Pyridyl)-L-alanine; SITE 11: note = alpha-methyl-L-serine; SITE 13: note = alpha-methyl-leucine; SITE 16: note = L-ornithine; SITE 17: note = Lysine is chemically modified th
As to B8, the Relative cAMP EC50 in test [1] amounted to 2.63 nM; in the test with hGLP-1R, 0.422 nM; in test [2], 0.00839 nM. Moreover, the cAMP Rel EC50 (in the presence of 1% HSA) was found to be 364 nM in test [1], 65.4 nM with hGLP-1R and 0.999 nM in test [2].

B9: Example 1169 (peptide)
chain: YXQGTXTSDXXIXLDXKAQXEFIEXLIEGGPSSGEPPPSGGGE
modifications: non-natural residues; acylated Lys C18 diacid; C-term amide; synthetic construct; SITE 2: note = 2-Aminoisobutyric Acid; SITE 6: note = alpha-methyl-L-phenylalanine; SITE 10: note = 3-(4-Pyridyl)-L-alanine; SITE 11: note = alpha-methyl-L-serine; SITE 13: note = alpha-methyl-leucine; SITE 16: note = L-ornithine; SITE 17: note = Lysine is chemically modified th
As for B9, the figures for the Relative cAMP EC50 (in test [1]; with hGLP-1R; in test [2]) were 2.43 nM, 0.613 nM and 0.011 nM, respectively. Besides, the cAMP Rel EC50 (in the presence of 1% HSA) is 304 nM in test [1], 80 nM with hGLP-1R and 1.18 nM in test [2].

B10: Example 1174 (peptide)
chain: YXQGTXTSDXXIXLDXKAQXEFIEXLIEGGPSSGAPPPSGGGE
modifications: non-natural residues (Aib, αMeF, 4Pal, Orn, Me4Pal); lipidated Lys; C-amide; synthetic construct; SITE 2: note = 2-Aminoisobutyric Acid; SITE 6: note = alpha-methyl-L-phenylalanine; SITE 10: note = 3-(4-Pyridyl)-L-alanine; SITE 11: note = alpha-methyl-L-serine; SITE 13: note = alpha-methyl-leucine; SITE 16: note = L-ornithine; SITE 17: note = Lysine is chemically modified th
On to B10, for which the results for the Relative cAMP EC50 (in test [1]; in the test with hGLP-1R; in test [2]) were 2.58 nM, 0.454 nM and 0.00896 nM, respectively. The cAMP Rel EC50 (in the presence of 1% HSA) in test [1] was determined as 347 nM; with hGLP-1R it was 60.2 nM; in test [2] it was 0.707 nM.

B11: Example 1175 (peptide)
chain: YXQGTXTSDXXIXLDXKAQXEFIEXLIEGGPSSGEPPPSGGGE
modifications: Aib, αMe residues, 4Pal, Orn, Me4Pal; acylated K; amide; synthetic construct; SITE 2: note = 2-Aminoisobutyric Acid; SITE 6: note = alpha-methyl-L-phenylalanine; SITE 10: note = 3-(4-Pyridyl)-L-alanine; SITE 11: note = alpha-methyl-L-serine; SITE 13: note = alpha-methyl-leucine; SITE 16: note = L-ornithine; SITE 17: note = Lysine is chemically modified th
As to B11, the Relative cAMP EC50 in test [1] was 2.08 nM; in the test with hGLP-1R, 0.572 nM; in test [2] it was 0.00962 nM. Besides, the cAMP Rel EC50 (in the presence of 1% HSA) in test [1] was 282 nM; with hGLP-1R, 60.7 nM; in test [2], 0.768 nM.

For the origin of these results see patent US20240270821A1, “GIP/GLP1/GCG TRI-RECEPTOR AGONISTS AND USES THEREOF” (priority 2023, published 2024).
